The values below come from PMC3915908 (Cell Research, 2013).

The target of assay [1] is T1, C-terminal domain of Pat1 (Pat1C), wild type (S. cerevisiae, UniProt P25644 422-796).
T1 sequence: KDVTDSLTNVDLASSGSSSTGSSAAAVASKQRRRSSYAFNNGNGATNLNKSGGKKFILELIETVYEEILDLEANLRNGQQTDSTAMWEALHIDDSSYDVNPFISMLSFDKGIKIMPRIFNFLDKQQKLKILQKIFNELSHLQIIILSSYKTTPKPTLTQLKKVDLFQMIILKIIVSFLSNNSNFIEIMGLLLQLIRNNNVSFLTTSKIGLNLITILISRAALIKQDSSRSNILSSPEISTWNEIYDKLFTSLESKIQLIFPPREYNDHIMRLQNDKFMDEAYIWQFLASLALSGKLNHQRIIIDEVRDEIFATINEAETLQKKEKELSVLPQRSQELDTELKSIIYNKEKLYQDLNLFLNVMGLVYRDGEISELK
Put plainly: crystal structure.

For assay [2], the target named is T1, C-terminal domain of Pat1 (Pat1C), wild …. Put plainly: native gel or EMSA.

B1: Lsm2 (natural protein)
chain: MLFFSFFKTLVDQEVVVELKNDIEIKGTLQSVDQFLNLKLDNISCTDEKKYPHLGSVRNIFIRGSTVRYVYLNKNMVDTNLLQDATRREVMTERK
In the case of B1, the binding result in assay [1] is listed as “binds”.

B2: Lsm2-3 subcomplex, wild type (complex)
chain 1: B1 chain
chain 2: METPLDLLKLNLDERVYIKLRGARTLVGTLQAFDSHCNIVLSDAVETIYQLNNEELSESERRCEMVFIRGDTVTLISTPSEDDDGAVEI
B2: the binding result in assay [2] is “binds”.
